Laboratory results: patent publication US6835382B2, “Ii peptide therapeutics to enhance antigen presentation” (University of Massachusetts, priority 1996, dated 2004)

Key:
[1] = target: T1, murine E^d MHC class II allele (Mus musculus, UniProt P01904+P01915); assay: simultaneous assay, E^d allele (A20 APC, G28.C9 T hybridoma, HEL106-116; HT-2 [3H]TdR readout); type: cell-based; set-up: The A20 and CH27 B cell lymphoma lines express H-2^d and H-2^k alleles, respectively; endogenous in cells; host or cells: A20 B cell lymphoma (mitomycin C-treated or paraformaldehyde-fixed)
T1 sequence (P01904 26-255): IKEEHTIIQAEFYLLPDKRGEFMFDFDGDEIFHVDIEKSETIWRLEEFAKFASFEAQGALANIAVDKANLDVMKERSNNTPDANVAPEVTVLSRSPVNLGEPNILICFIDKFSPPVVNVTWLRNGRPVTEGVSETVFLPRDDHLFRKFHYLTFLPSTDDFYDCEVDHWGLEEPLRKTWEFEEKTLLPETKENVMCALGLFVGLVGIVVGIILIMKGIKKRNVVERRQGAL
T1 sequence (P01915 27-264 limits assumed): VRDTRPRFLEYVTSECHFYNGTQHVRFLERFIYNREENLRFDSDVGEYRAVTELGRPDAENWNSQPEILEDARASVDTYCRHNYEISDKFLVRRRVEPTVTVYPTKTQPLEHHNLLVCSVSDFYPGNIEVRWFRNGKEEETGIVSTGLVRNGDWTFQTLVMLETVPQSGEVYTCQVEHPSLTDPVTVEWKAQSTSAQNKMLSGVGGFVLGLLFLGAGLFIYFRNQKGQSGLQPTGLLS
Procedure: (§1) Examples 1-4 (Tables 1-18) will be briefly considered in order to establish the concept of tolerance discussed above. These examples describe experimental results observed in the so-called “simultaneous” assay. In the simultaneous assay four principle components are cultured together for a 24 hour period. The components of this culture, which are added simultaneously, are: (a) an antigenic peptide characterized by the ability to bind specifically into the antigenic peptide binding groove of an MHC class II molecule, (b) mitomycin C-treated, MHC class II-positive antigen presenting cells (APC) bearing the MHC class II allele required for binding of the specific antigenic peptide, and presentation of the specific antigenic peptide to the antigenic peptide-specific T cell hybridoma, (c) an effector compound of the present invention, and (d) an MHC class II allele-restricted T cell hybridoma specific for the antigenic peptide and the MHC class II allele restricting its presentation. Following incubation of this primary culture, an aliquot of its supernatant is transferred into a second culture well for incubation with an interleukin-dependent lymphoblastoid cell line. The degree of stimulation of that second, indicator cell by the interleukins which had been released from the activated T cell hybridoma in the primary culture is measured by quantitating tritiated thymidine deoxyribose {[^3H]TdR} uptake into the DNA of the HT-2 indicator cells of that second culture.
(§2) In the “simultaneous assay” the four components of the assay are cultured together for a 24 h period. The components of this primary culture, added at the same time or simultaneously, are: (a) the antigenic peptide, (b) mitomycin C-treated, MHC class II-positive antigen presenting cells (APC) with the MHC class II allele required for binding of the specific antigenic peptide and its presentation to the antigenic peptide-specific T cell hybridoma, (c) an AE101 series effector peptide, and (d) MHC class II allele-restricted T cell hybridoma specific for the antigenic peptide and the MHC class II allele restricting its presentation. At the end of the incubation of this primary culture, an aliquot of its supernatant is transferred into a second culture well for incubation with an interleukin-dependent lymphoblastoid cell line. The degree of stimulation of that second, indicator cell by the interleukins which had been released from the activated T cell hybridoma in the primary culture is measured by quantitating tritiated thymidine deoxyribose {[^3H]TdR} uptake into the DNA of the HT-2 indicator cells of that second culture.
(§3) For these various assays, the following antigenic peptides were used: HEL11-25, hen egg lysozyme 11-25, AMKRHGLDNYRGYSL(A^d) (SEQ ID NO:5); HEL46-61, hen egg lysozyme 46-61, NTDGSTDYGILQINSR(Ak) (SEQ ID NO:6); HEL106-116, hen egg lysozyme 106-116, NAWVAWRNRCK (E^d) (SEQ ID NO:7); PGCC81-104, pigeon cytochrome c 81-104, […] (Ek) (SEQ ID NO:8), and THMCC82-103, tobacco hornworm moth cytochrome c 82-103, […] (Ek) (SEQ ID NO:9). AE101 series peptides were obtained from commercial sources. In general, the purity and composition of each peptide was confirmed by HPLC separation and mass spectrometry. The native protein antigens were HEL, hen egg lysozyme, and PGCC, pigeon cytochrome C. They were obtained from commercial sources.
(§4) For the experiments of these Examples, several T cell hybridomas, which are specific for certain antigenic peptides, were used. The TPc9.1 T hybridoma is specific for pigeon cytochrome C 81-104 peptide presented on the murine class II MHC allele E^k. The TPc9.1 hybridoma responds heteroclitically to tobacco hornworm moth cytochrome c 82-103 on E^k. The 3A9 T hybridoma is specific for hen egg lysozyme 46-61 on A^k. The 9.30.B2 hybridoma is specific for hen egg lysozyme 11-25 on A^d, and the G28.C9 hybridoma is specific for hen egg lysozyme 106-116 on E^d. […]

[2] = tested on: murine E^k MHC class II allele; assay: simultaneous assay, E^k allele (CH27 APC, TPc9.1 T hybridoma, THMCC82-103 or PGCC81-104); type: cell-based; settings: AE peptide 64 μM
Procedure: as §1, §2, §3, §4

[3] = target: soluble HLA-DR1 (HLA-DR alpha truncated after Asn192 with a C-terminal nine amino acid HA epitope tail; HLA-DR1 beta truncated after Lys198), made in Baculovirus-infected insect cells (human); assay: release ELISA: soluble HLA-DR1 tethered by 12CA5 and preloaded with biotin-hMBP(90-102); AE peptide 64 uM, 1 h 37 C, no unlabeled peptide; biotin still bound read by avidin-HRP (1.0 = PBS control, 0.0 = no DR1; low value = released)
[4] = target: soluble HLA-DR1 (HLA-DR alpha truncated after Asn192 with a C-terminal nine amino acid HA epitope tail; HLA-DR1 beta truncated after Lys198), made in Baculovirus-infected insect cells (human); assay: exchange ELISA: tethered HLA-DR1 preloaded with unlabeled hMBP(90-102) 50 uM, washed; AE peptide plus biotin-hMBP(90-102) 50 uM, 1 h 37 C; biotin bound as fraction of positive control (overnight loading)
[5] = target: soluble HLA-DR1 (HLA-DR alpha truncated after Asn192 with a C-terminal nine amino acid HA epitope tail; HLA-DR1 beta truncated after Lys198), made in Baculovirus-infected insect cells (human); assay: loading ELISA: empty tethered HLA-DR1 with biotin-hMBP(90-102) 50 uM and AE peptide 64 uM, 1 h 37 C; biotin bound read by avidin-HRP
[6] = Table 6, AE peptide 64 μM, supernatant 1:4
[7] = Table 6, supernatant 1:4, reduced by a factor of 5

Molecule: Ac-LRM HArg LPK-NH2 [AE212]
- Times Baseline Response, E^d [1, 6]: 13.2
- Times Baseline Response, E^k [2, 7]: 15.4

Molecule: Ac-LRM F LPK-NH2 [AE218]
- Times Baseline Response, E^d [1, 6]: 3.1
- Times Baseline Response, E^k [2, 7]: 9.0

Molecule: Ac-YRAKLPKSAK-NH2 [AE122]
- Times Baseline Response, E^d ([1]; Table 10, AE peptide 16 μM (second value), supernatant 1:2): 9.2
- Times Baseline Response, E^d ([1]; Table 10, AE peptide 64 μM (first value), supernatant 1:2): 16.2
- Times Baseline Response, E^k ([2]; Table 10, supernatant 1:2 (first value)): 46.2
- Times Baseline Response, E^k ([2]; Table 10, supernatant 1:4 (second value)): 41.4

Molecule: Ac-LR Q KLPK-NH2 [AE203]
- Times Baseline Response, E^d ([1]; Table 5, AE peptide 64 μM, supernatant 1:4): 14.1
- Times Baseline Response, E^k ([2]; Table 5, supernatant 1:4, normalized to E^d by a factor of 10): 20.5

Molecule: Ac-LRM E LPK-NH2 [AE215]
- Times Baseline Response, E^d [1, 6]: 0.7
- Times Baseline Response, E^k [2, 7]: 0.4

Molecule: PKSAKPVSQMR [AE104]
- Relative Release (fraction of positive control o.d.) [3]: 0.02

Molecule: Ac-LRMKLPKPP-NH2 [AE401]
- Relative Binding (of biotin-hMBP(90-102) to HLA-DR1) (fraction of positive control o.d.) [4]: 0.45
- Relative Release (fraction of positive control o.d.) [3]: 0.16
- Relative Enhancement (of biotin-hMBP(90-102) binding to empty HLA-DR1) (relative to no AE peptide = 1) [5]: 4.29

Molecule: YRMKLPKSAKPVSQ [AE106]
- Relative Release (fraction of positive control o.d.) [3]: -0.12

Molecule: Ac-MKLPKPPKPV-NH2 [AE403]
- Relative Binding (of biotin-hMBP(90-102) to HLA-DR1) (fraction of positive control o.d.) [4]: 0.4
- Relative Release (fraction of positive control o.d.) [3]: 0.64
- Relative Enhancement (of biotin-hMBP(90-102) binding to empty HLA-DR1) (relative to no AE peptide = 1) [5]: 0.47

Molecule: SAKPVSQMR [AE105]
- Fraction of biotin-hMBP still bound (fraction of positive control o.d.) [3]: 0.16

Molecule: KLPKSAKPVSQMR [AE103]
- Relative Release (fraction of positive control o.d.) [3]: 0.01

Molecule: Ac-LRMKLPKPPKPV-NH2 [AE402]
- Relative Binding (of biotin-hMBP(90-102) to HLA-DR1) (fraction of positive control o.d.) [4]: -0.03
- Relative Release (fraction of positive control o.d.) [3]: 0.65
- Relative Enhancement (of biotin-hMBP(90-102) binding to empty HLA-DR1) (relative to no AE peptide = 1) [5]: 0.33
